This sample holds only a part of the variants without activity.
Assays:
[1] = tested on: biotinyl-Trp-oxazolone; assay: self-aminoacylation, catalytic enhancement (BWO) (fold over background); higher = more active; k-Seq, kA / k0A0; sequences stand for … in GGGAAUGGAUCCACAUCUACGAAUUC…UUCACUGCAGACUUGACGAAGCUG
How it was run: (§1)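 Catalytic enhancement equals the median kA over the uncatalyzed rate, the latter read from the low-activity peak of a bimodal Gaussian fit. Values of kA came from fitting each sequence's fraction reacted to a pseudo-first-order model, with 1000 bootstraps. Reacted RNA was captured with streptavidin and quantified by triplicate qPCR and Illumina sequencing after 90 minutes at room temperature with 2–1250 μM biotinyl-aminoacyl-oxazolone and 0.43 μM mutagenized RNA pools bearing a 21-nt variable region.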

[2] = tested on: biotinyl-Phe-oxazolone; assay: self-aminoacylation, catalytic enhancement (BFO) (fold over background); higher = more active; k-Seq, kA / k0A0; sequences stand for … in GGGAAUGGAUCCACAUCUACGAAUUC…UUCACUGCAGACUUGACGAAGCUG
How it was run: as §1

| Sequence | self-aminoacylation [1] | self-aminoacylation [2] |
| --- | --- | --- |
| CCACACUCCAAUCAAUCGGUC [Fam1B.1 aminoacylation ribozyme variant] | 3.48 | 5.95 |
| AAAUUUGCUAAUAUUCGCAAG [Fam3.1 aminoacylation ribozyme variant] | 2.01 | – |
| CUAUUUCAAUCAAUCGGUCUG [Fam1A.1 aminoacylation ribozyme variant] | 3.72 | 6.36 |
| CCACACUUCAAGGAAUCGGUC [Fam1B.1 aminoacylation ribozyme variant] | 6.13 | 8.21 |
| AAGUUUGCUAAUAGUCGCGAA [Fam3.1 aminoacylation ribozyme variant] | 3.37 | 6.39 |
| AUAAUUCAAACAAUCGGUCUG [Fam1A.1 aminoacylation ribozyme variant] | 2.97 | 4.88 |
| CUGCUCCAAACAAUCGGUCUG [Fam1A.1 aminoacylation ribozyme variant] | 20.3 | 27 |
| AAGUUUGCUAAGAGUCGCCAG [Fam3.1 aminoacylation ribozyme variant] | 2.06 | – |
| CUCCUUCAAACAAUCGGUCUU [Fam1A.1 aminoacylation ribozyme variant] | 16.3 | 25.4 |
| CCACUCUUCAAGCAAUCAGUC [Fam1B.1 aminoacylation ribozyme variant] | 2.76 | 8.2 |
| ACACACUUCAAGUAAUCGGUC [Fam1B.1 aminoacylation ribozyme variant] | 6 | 7.88 |
| AAGUUUGAUUAUAGUCGCAAG [Fam3.1 aminoacylation ribozyme variant] | 2.07 | 2.29 |
| CUACUUCAAACAAUCGGUCUA [Fam1A.1 aminoacylation ribozyme variant] | 10 | 24.5 |
| CCACAGUUCAAGCAAUCGGUC [Fam1B.1 aminoacylation ribozyme variant] | 3.69 | 5.12 |
| AAGUUUGCUAAUUGUCGCAAC [Fam3.1 aminoacylation ribozyme variant] | 2.13 | – |
| CGAGACUUCAAGCAAUCGGUC [Fam1B.1 aminoacylation ribozyme variant] | 4.16 | 5.77 |
| CCACACUUCAACAAAUCGGUC [Fam1B.1 aminoacylation ribozyme variant] | 7.95 | 11.5 |
| CUACUUCAAUCAAUCGGUCAG [Fam1A.1 aminoacylation ribozyme variant] | 3.51 | 7.4 |
| AAGUUGGCUAAUAGUCACAAG [Fam3.1 aminoacylation ribozyme variant] | 2.29 | – |
| CUACUUCAAGCAAUCGGUCUA [Fam1A.1 aminoacylation ribozyme variant] | 4.06 | 7.64 |
| CUACUUCAAGCAAUCGGUCCG [Fam1A.1 aminoacylation ribozyme variant] | 3.02 | 3.44 |
| AAGUCGGCUAAUAGUCGCAAG [Fam3.1 aminoacylation ribozyme variant] | 4.2 | 9.73 |
| UCACACUUCAAGCAAUCGGCC [Fam1B.1 aminoacylation ribozyme variant] | 4 | 4.64 |
| AAGUUUGCUCAUAGUCGUAAG [Fam3.1 aminoacylation ribozyme variant] | 3.67 | 14.6 |
| AAGUUAGCUAAUCGUCGCAAG [Fam3.1 aminoacylation ribozyme variant] | 2.21 | – |

| Sequence | self-aminoacylation [1] | self-aminoacylation [2] |
| --- | --- | --- |
| CCAAACUUCAAGGAAUCGGUC [Fam1B.1 aminoacylation ribozyme variant] | 5.42 | 5.98 |
| CUACUUCAAACACCCGGUCUG [Fam1A.1 aminoacylation ribozyme variant] | 2.08 | – |
| CUACCUCCAACAAUCGGUCUG [Fam1A.1 aminoacylation ribozyme variant] | 3.94 | 4.71 |
| CUAGUUCAAACAAUCAGUCUG [Fam1A.1 aminoacylation ribozyme variant] | 2.15 | 5.02 |
| CCACUCUUCAACCAAUCGGUC [Fam1B.1 aminoacylation ribozyme variant] | 27 | 45.7 |
| AAGUUCGCUAAUAGUCGUAAG [Fam3.1 aminoacylation ribozyme variant] | 4.33 | 13.7 |
| CUACUUCAAACAAUCGGGCUG [Fam1A.1 aminoacylation ribozyme variant] | 9.43 | 13.2 |
| AAGUUGGCUAAUAGUCGCAAA [Fam3.1 aminoacylation ribozyme variant] | 2.03 | 2.83 |
| UAGUUUGCUAACAGUCGCAAG [Fam3.1 aminoacylation ribozyme variant] | 3.08 | 5.84 |
| CUACUUCAAACAAUCGGUCGG [Fam1A.1 aminoacylation ribozyme variant] | 17.3 | 27.4 |
| AUUCACCUAGGUUAUCGGGUU [Fam2.2 aminoacylation ribozyme variant] | 2.04 | 5.07 |
| CUACUUCAAGCAAUCGGUCUC [Fam1A.1 aminoacylation ribozyme variant] | 6.61 | 11.4 |
| CAAAACUUCAAGCAAUCGGUC [Fam1B.1 aminoacylation ribozyme variant] | 10.6 | 15.2 |
| CUACACUUCAAGAAAUCGGUC [Fam1B.1 aminoacylation ribozyme variant] | 5.31 | 8.72 |
| CCCUACUUCAAGCAAUCGGUC [Fam1B.1 aminoacylation ribozyme variant] | 33.8 | 73.5 |
| AAGAUUGCUAAUAGGCGCAAG [Fam3.1 aminoacylation ribozyme variant] | 2.61 | – |
| CCACACUUCAAACAAUCGGGC [Fam1B.1 aminoacylation ribozyme variant] | 2.65 | – |
| AAUUUUGCUAAUAGUCGCUAG [Fam3.1 aminoacylation ribozyme variant] | 2.24 | – |
| AUUCACCUAGGUCUUCGGGAG [Fam2.2 aminoacylation ribozyme variant] | – | 4.51 |
| AUUACCCGGGUCGUCGAGUGA [Fam2.1 aminoacylation ribozyme variant] | – | 3.86 |
| CCACACUUCAAGCUAUCGCUC [Fam1B.1 aminoacylation ribozyme variant] | – | 2.03 |
| ACGUUUGCUAAUGGUCGCAAG [Fam3.1 aminoacylation ribozyme variant] | – | 3.94 |
| AUUCACCUAGGUCAUUAGGUG [Fam2.2 aminoacylation ribozyme variant] | 2.24 | – |
| AAGUUUGCGAAUAGUGGCAAG [Fam3.1 aminoacylation ribozyme variant] | – | 2.12 |
| AUUCACCUAGGUCACAGGGUG [Fam2.2 aminoacylation ribozyme variant] | – | 5.68 |

— the supplement of paper PMC9233669
